Assay [1] has as its target wild type single chain urokinase (scuPA) (Homo sapiens (Human)) (UniProt P00749). Briefly: cell-based or functional assay.
Assay [2] concerns the target two chain urokinase (tcuPA) (Homo sapiens (Human)) (UniProt P00749). Briefly: cell-based or functional assay.

Turning to “soluble recombinant human urokinase receptor (suPAR) (from UniProt Q03405 23-299)”, the EC50 of phenylepherine (PE)-induced contraction of rat aortic rings in assay [1] and in assay [2] was 0.029 µM each time.

The record behind these values is US20020131964A1.
